Positions count from the first letter of the chain named.
B1: HBC34-V35-MLNS (antibody, human IgG1, lambda)
heavy: not shown
light: SYELTQPPSVSVSPGQTVSIPCSGDKLGNKNVAWFQHKPGQSPVLVIYEVKYRPSGIPERFSGSNSGNTATLTISGTQAMDEAAYFCQTFDSTTVVFGGGTRLTVLGQPKAAPSVTLFPPSSEELQANKATLVCLISDFYPGAVTVAWKADSSPVKAGVETTTPSKQSNNKYAASSYLSLTPEQWKSHRSYSCQVTHEGSTVEKTVAPTECS
B2: HBC34-V35-MLNS-GAALIE (antibody, human IgG1, lambda)
heavy: ELQLVESGGGWVQPGGSQRLSCAASGRIFRSFYMSWVRQAPGKGLEWVATINQDGSEKLYVDSVKGRFTISRDNAKNSLFLQMNNLRVEDTAVYYCAAWSGNSGGMDVWGQGTTVSVSSASTKGPSVFPLAPSSKSTSGGTAALGCLVKDYFPEPVTVSWNSGALTSGVHTFPAVLQSSGLYSLSSVVTVPSSSLGTQTYICNVNHKPSNTKVDKKVEPKSCDKTHTCPPCPAPELLAGPSVFLFPPKPKDTLMISRTPEVTCVVVDVSHEDPEVKFNWYVDGVEVHNAKTKPREEQYNSTYRVVSVLTVLHQDWLNGKEYKCKVSNKALPLPEEKTISKAKGQPREPQVYTLPPSRDELTKNQVSLTCLVKGFYPSDIAVEWESNGQPENNYKTTPPVLDSDGSFFLYSKLTVDKSRWQQGNVFSCSVLHEALHSHYTQKSLSLSPGK
light: B1 light

How the values were obtained:
[1] = target: T1, Human complement component C1q (human, UniProt P02745 23-245; P02746 28-253; P02747 29-245); experiment: BLI (Octet RED96), IgG captured on anti-human Fab (CH1) sensors, C1q at 3 µg/ml
T1 construct: also called human C1q; human complement protein C1q
T1 sequence (P02745 23-245 limits assumed, chain 1 of 3): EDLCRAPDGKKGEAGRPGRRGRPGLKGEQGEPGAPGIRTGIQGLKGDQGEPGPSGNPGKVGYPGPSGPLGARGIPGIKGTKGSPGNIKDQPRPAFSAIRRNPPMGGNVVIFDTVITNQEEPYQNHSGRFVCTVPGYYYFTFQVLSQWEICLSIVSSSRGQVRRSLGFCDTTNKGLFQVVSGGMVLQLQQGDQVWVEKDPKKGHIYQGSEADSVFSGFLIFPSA
T1 sequence (P02746 28-253 limits assumed, chain 2 of 3): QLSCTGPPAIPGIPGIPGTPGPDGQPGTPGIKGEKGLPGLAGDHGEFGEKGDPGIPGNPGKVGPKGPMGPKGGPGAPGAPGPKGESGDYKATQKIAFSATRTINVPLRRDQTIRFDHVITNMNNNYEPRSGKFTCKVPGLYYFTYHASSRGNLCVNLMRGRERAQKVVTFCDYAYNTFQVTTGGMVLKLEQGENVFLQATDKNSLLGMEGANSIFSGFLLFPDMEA
T1 sequence (P02747 29-245 limits assumed, chain 3 of 3): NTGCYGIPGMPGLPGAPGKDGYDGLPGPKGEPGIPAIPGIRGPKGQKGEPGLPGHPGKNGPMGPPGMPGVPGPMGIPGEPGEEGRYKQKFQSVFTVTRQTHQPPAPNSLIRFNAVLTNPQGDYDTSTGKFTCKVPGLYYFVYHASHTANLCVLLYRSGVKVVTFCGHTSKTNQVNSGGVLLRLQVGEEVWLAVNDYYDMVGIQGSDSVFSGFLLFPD
Experimental: (§1) IgG-loaded sensors were then exposed for 4 minutes to a solution of kinetics buffer (pH 7.1) containing 3 μg/ml of purified human C1q (left part of the plot), followed by a dissociation step in the same buffer for additional 4 minutes (right part of the plot). Association and dissociation profiles were measured in real time as change in the interference pattern using an Octet RED96 (FortéBio).
(§2) IgG-loaded sensors were then exposed for 4 minutes to a solution of kinetics buffer (pH 7.1) containing 3 μg/ml of purified human C1q (left part of the plot), followed by a dissociation step in the same buffer for 4 additional minutes (right part of the plot). Association and dissociation profiles were measured in real time as change in the interference pattern using an Octet RED96 (FortéBio).

[2] = target: T2, Recombinant human FcγRIIa (H131), His-tagged (human, UniProt P12318 34-218); experiment: BLI (Octet RED96), His-tagged FcγR on anti-penta-His sensors, mAb at 2 µg/ml cross-linked with anti-human F(ab')2
T2 construct: also called FcγRIIa allele H131; not shown: C-terminal 6-His tag
T2 sequence (looked up): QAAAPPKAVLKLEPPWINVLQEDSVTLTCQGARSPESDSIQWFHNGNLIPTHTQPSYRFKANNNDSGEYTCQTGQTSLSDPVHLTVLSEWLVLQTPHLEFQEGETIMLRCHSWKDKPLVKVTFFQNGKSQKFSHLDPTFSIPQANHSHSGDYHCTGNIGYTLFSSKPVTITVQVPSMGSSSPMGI

[3] = target: T3, Recombinant human FcγRIIa (R131), His-tagged (human, UniProt P12318 34-218); experiment: as above
T3 construct: also called FcγRIIa allele R131
T3 sequence (looked up): T2 sequence (looked up) with H134R
Experimental: His-tagged human FcγRs ((A) FcγRIIa allele H131; (B) FcγRIIa allele R131; (C) FcγRIIIa allele F158; (D) FcγRIIIa allele V158; (E) FcγRIIb) at 2 μg/ml were captured onto anti-penta-His sensors for 6 minutes. FcγRs-loaded sensors were then exposed for 5 minutes to a solution of kinetics buffer (pH 7.1) containing 2 μg/ml of each mAb (left part of the plot) in the presence 1 μg/ml of affiniPure F(ab′)₂ Fragment Goat Anti-Human IgG, F(ab′)₂ fragment specific (to cross-link human mAbs through the Fab fragment), followed by a dissociation step in the same buffer for additional 4 minutes (right part of the plot). Association and dissociation profiles were measured in real time as change in the interference pattern using an Octet RED96 (FortéBio).
Briefly, His-tagged human FcγRs (FcγRIIa allele H131, FcγRIIa allele R131, FcγRIIAa allele F158, FcγRIIIa allele V158 and FcγRIIb) at 2 μg/ml were captured onto anti-penta-His sensors for 6 minutes. FcγR-loaded sensors were then exposed for 4 minutes to a solution of kinetics buffer (pH 7.1) containing 2 μg/ml of each mAb in the presence 1 μg/ml of affiniPure F(ab′)2 Fragment Goat Anti-Human IgG, F(ab′)2 fragment-specific (to cross-link human mAbs through the Fab fragment), followed by a dissociation step in the same buffer for 4 additional minutes (right part of the plot). Association and dissociation profiles were measured in real time as change in the interference pattern using an Octet RED96 (FortéBio).

[4] = target: T4, Recombinant human FcγRIIIa (F158), His-tagged (human, UniProt P08637 17-208); experiment: as above
T4 construct: also called FcγRIIIa allele F158; not shown: C-terminal 6-His tag
T4 sequence (P08637 17-208 limits assumed): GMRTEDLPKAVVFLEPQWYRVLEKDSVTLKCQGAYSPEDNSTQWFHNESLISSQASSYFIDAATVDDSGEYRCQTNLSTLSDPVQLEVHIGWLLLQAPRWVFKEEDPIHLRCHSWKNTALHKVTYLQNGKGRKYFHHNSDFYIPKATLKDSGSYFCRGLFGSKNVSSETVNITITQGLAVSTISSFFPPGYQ

[5] = target: T5, Recombinant human FcγRIIIa (V158), His-tagged (human, UniProt P08637 17-208); experiment: as above
T5 construct: also called FcγRIIIa allele V158; not shown: C-terminal 6-His tag
T5 sequence (P08637 17-208 F176V limits assumed): as the sequence (P08637 17-208 limits assumed) above, with F160V counted along it

[6] = target: T6, Recombinant human FcγRIIb, His-tagged (human, UniProt P31994 43-217); experiment: as above
T6 construct: not shown: C-terminal 6-His tag
T6 sequence (looked up): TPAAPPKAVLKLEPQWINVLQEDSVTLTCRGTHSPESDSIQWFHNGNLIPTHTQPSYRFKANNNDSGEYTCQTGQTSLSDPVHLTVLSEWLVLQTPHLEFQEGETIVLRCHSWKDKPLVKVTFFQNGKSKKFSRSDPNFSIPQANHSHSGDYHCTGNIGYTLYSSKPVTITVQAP

[7] = target: T1, Human complement component C1q; experiment: BLI (Octet RED96), IgG captured on anti-human Fab (CH1) sensors
Experimental: as §1, §2

Binder | binding result [1] | binding result [2] | binding result [3] | binding result [4] | binding result [5] | binding result [6] | binding result [7]
B1 | binds | binds | binds | binds | binds | binds | 
B2 |  | binds | binds | binds | binds |  | no binding (tested: 3 µg/ml of purified human C1q)

Source: patent publication US20220380441A1 (VIR BIOTECHNOLOGY, published 2022)
